Test results published in PMC5022050, “The Crystal Structure of Peroxiredoxin Asp f3 Provides Mechanistic Insight into Oxidative Stress Resistance and Virulence of Aspergillus fumigatus” (Scientific Reports, 2016).
Residue numbers refer to the chain shown, from its start. Names may count otherwise.

B1: Asp f3 wild type, recombinant, C-terminally His-tagged (enzyme)
chain: MGSGLKAGDSFPSDVVFSYIPWSEDKGEITACGIPINYNASKEWADKKVILFALPGAFTPVCSARHVPEYIEKLPEIRAKGVDVVAVLAYNDAYVMSAWGKANQVTGDDILFLSDPDARFSKSIGWADEEGRTKRYALVIDHGKITYAALEPAKNHLEFSSAETVLKHL
notes: also called Aspf3 WT; WT Asp f3; source: E. coli ClearColi BL21(DE3), purified (Ni-NTA, size-exclusion on Superdex 75); not shown: His6, C-terminal, kept
B2: Asp f3 C31S/C61S variant, recombinant, C-terminally His-tagged (enzyme)
chain: B1 chain with C32S, C62S
notes: also called serine variant; mimic of the reduced Asp f3; source: E. coli ClearColi BL21(DE3), purified (Ni-NTA, size-exclusion on Superdex 75); not shown: His6, C-terminal, kept

Molecular target: the molecule itself
Test: AUC; sedimentation equilibrium, PBS pH 7.4, ~5, ~15 and ~25 uM protein, 10000, 20000 and 30000 rpm, 25 °C; global fit with Sedfit and Sedphat

| Protein | stoichiometry N |
| --- | --- |
| B1 | 2 |
| B2 | 2 |
